In the data set the target is FLAG-WRN (wild type) (UniProt Q14191 1-1432). Kind of data set: EMSA; 2 mM ATPgS, 5 mM MgCl2; affinity similar to the K577M/E84A mutant; Kd is only in Supp Fig 1e, value not in material; 35 mM Tris-HCl pH 7.5, 20 mM KCl, 5 mM MgCl2, 0.1 mg/ml BSA, 2 mM DTT, 5% glycerol, 2 mM ATPgS, 2 nM DNA, 15 min at RT; 5% 1x TBE native PAGE at 4 C. The following applies: protein: recombinant; tags: N-terminal FLAG (6xHis removed with TEV); label: 5' 32P on oligo B (as described for the CF preparation); four-strand regressed fork: AB partial duplex annealed to CD partial duplex. In general terms: A gel shift assay detects complexes by their altered migration in electrophoresis.
FLAG-WRN (wild type), sequence (Q14191 whole entry): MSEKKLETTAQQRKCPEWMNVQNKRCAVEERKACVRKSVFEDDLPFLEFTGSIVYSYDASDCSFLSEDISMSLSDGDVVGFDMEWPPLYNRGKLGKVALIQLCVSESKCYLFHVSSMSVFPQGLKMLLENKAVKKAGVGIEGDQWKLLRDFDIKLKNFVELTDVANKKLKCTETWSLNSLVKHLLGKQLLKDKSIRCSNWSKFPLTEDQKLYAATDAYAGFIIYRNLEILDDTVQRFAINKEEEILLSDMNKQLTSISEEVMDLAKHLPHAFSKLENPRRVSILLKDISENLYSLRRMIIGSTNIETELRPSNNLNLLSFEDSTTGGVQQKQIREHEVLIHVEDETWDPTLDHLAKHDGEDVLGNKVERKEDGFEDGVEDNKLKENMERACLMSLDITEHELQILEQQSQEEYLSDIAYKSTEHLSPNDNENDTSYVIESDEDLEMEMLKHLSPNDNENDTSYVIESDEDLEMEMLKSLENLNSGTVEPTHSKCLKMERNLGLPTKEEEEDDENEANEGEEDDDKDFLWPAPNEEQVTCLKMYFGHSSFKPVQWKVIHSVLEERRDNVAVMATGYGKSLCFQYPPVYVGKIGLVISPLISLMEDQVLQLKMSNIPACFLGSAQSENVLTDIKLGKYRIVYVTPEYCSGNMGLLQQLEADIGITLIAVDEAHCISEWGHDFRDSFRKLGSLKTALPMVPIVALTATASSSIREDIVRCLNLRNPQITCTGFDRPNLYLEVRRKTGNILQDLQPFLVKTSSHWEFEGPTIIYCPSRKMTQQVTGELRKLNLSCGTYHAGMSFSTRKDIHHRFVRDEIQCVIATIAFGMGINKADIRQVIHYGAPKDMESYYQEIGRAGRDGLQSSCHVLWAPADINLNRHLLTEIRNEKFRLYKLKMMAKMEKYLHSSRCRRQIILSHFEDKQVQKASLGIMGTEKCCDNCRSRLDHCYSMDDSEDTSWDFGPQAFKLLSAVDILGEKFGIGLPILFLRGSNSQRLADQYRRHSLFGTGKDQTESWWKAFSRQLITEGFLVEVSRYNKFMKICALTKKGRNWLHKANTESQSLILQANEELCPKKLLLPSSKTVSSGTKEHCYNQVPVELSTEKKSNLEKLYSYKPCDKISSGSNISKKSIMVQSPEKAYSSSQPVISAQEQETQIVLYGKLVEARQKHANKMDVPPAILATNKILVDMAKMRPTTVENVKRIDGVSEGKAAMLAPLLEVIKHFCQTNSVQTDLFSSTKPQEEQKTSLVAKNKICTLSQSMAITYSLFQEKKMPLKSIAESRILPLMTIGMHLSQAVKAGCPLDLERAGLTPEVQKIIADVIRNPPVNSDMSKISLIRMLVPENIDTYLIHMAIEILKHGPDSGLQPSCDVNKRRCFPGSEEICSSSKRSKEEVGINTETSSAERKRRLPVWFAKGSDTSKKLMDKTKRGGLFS

B1: chicken-foot (CF) reversed fork substrate, oligos A+B+C+D (structured_DNA)
DNA 1: CTTTAGCTGCATATTTACAACATGTTGACCTTCAGTACAATCTGCTCTGATGCCGCATAGTGTCATGCCAGAGCTTTGTAC
DNA 2: CGGGTGTCGGGGCGCATGACACTATGCGGCATCAGAGCAGATTGTACTGAAGGTCAACATGTTGTAAATATGCAGCTAAAG
DNA 3: GTACAAAGCTCTGGCATGATACTATGCGGCATCAGAGCAGATT
DNA 4: TCAGTACAATCTGCTCTGATGCCGCATAGTATCATGCGCCCCGACACCCG
modifications: iMe-isodC at position 38 of oligo A (written as C)
As to B1, the binding result was “binds”.

Values taken from PMC8590011, “WRN helicase safeguards deprotected replication forks in BRCA2-mutated cancer cells”.
